Molecular target: full-length GALLS (GALLS-FL) fused in frame with LexA in yeast bait vector pEG202 (pE3462)
Experiment: cell-based or functional assay

Q: Which β-galactosidase units (β-galactosidase units) does the source give for “LSH10 (GIP, GALLS Interacting Protein; At2g42610) expressed from the yeast two-hybrid prey vector pGAD424 (from UniProt Q9S7R3 1-177)” here?
A: 6

Source: patent US10526611
